According to publication PMC7596504, “Molecular mechanism of the MORC4 ATPase activation” (Nature Communications, 2020):
Residue numbers refer to the chain shown, from its start. Numbers in names are those of the source.

Experiments:
HEK293T cells [1] = test: Cell cycle analysis by flow cytometry; format: cell-based; details: for effect on S phase (words): 48-h overexpression, vs control cells; for percent of cells in S phase: 48-h overexpression of mCherry-tagged protein, EdU/PI, average of three independent experiments, control 34.5%
Protocol: For DNA content analysis, 10^6 cells previously transfected with mCherry MORC4 constructs and labeled with 25 µM Ethynyl deoxyUridine (EdU) for 1 h in 100 µL were washed with PBS (NaCl 137 mM, KCl 2.7 mM, Na2HPO4 10 mM, KH2PO4 1.8 mM) and fixed in ice cold 70% ethanol overnight. Fixed cells were washed and resuspended in PBS containing 0.05% NP40 and incubated at room temperature for 30 min. Cells were again washed with PBS. Cells were resuspended in Alexa Fluor 647 click staining solution (100 mM Tris pH 7.6, 4 mM CuSO4, 3 µM AF647 azide, 100 mM Sodium Ascorbate) for 1 h. Following staining, cells were washed with PBS and then stained for total DNA content using 10 μg/mL propidium iodide (PI) and 0.2 mg/ml RNase A for 60 min before analysis on a FACScan instrument. Data were analyzed using FlowJo (Version 10) with cells gated to remove doublets. EdU vs PI plots were gated in quadrants to identify G1, early S, late S and G2/M cells. S phase fractions were summed for total S phase population. […]

MORC4 CW domain = target: T1, MORC4 CW domain (Homo sapiens, UniProt Q8TE76); test: 1H,15N HSQC NMR titration of MORC4 CW; format: binding; details: Supplementary Fig. 12
T1 construct: The CW domain (aa 417–475) of MORC4 was cloned into a pGEX 6p-1 vector; GST (N, cleaved yes); made in house; host or cells: E. coli Rosetta2 (DE3) pLysS or BL21 (DE3) RIL
T1 sequence (Q8TE76 417-475): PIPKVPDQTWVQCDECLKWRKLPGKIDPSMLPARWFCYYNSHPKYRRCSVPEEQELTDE
Protocol: NMR experiments were carried out at 298 K on a Varian INOVA 600 and 900 MHz spectrometers. His-tagged MORC4 ATPase (1–411) was expressed and purified as described above and used without cleavage of the tag. NMR samples contained 0.1 mM uniformly ^15N-labeled WT or mutated CW in 20 mM Tris-HCl (pH 7) buffer supplemented with 100 mM NaCl, 5 mM DTT, and 10% D2O. Binding was characterized by monitoring CSPs in the proteins induced by H3 peptides or the ATPase domain. For the CWKRR mutant, NMR experiments were performed in 20 mM Tris-HCl (pH 6.8) buffer supplemented with 150 mM NaCl, 2 mM DTT, and 10% D2O.

HEK293T cells [2] = test: MORC4 localization and nuclear bodies (confocal microscopy); format: cell-based; details: live cells, confocal microscopy, 48 h post transfection
Protocol: WT mCherry-MORC4, mCherry-MORC4 E56A, mCherry-MORC4 W435A, mCherry-MORC4 E56A/W435A, mCherry-MORC4 K460A/R462A/R463A, or mCherry control plasmid were transfected into 2 million 293T-HEK cells seeded on 25 mm circular coverslips (Carolina Biological Supply Item#: 633057) in 10-cm-diameter tissue culture dish by Lipofectamine 3000 (Life Technology, L3000-075) following the manufacturer’s instructions. Two days after transfection, cells were stained with Hoechst […] for 30 min and imaged live on a ZeissAxiovert 200 M inverted microscope fitted with a ×40 oil objective. Images were acquired with Slidebook 6 software and exported for analysis in Image J.
mCherry foci sizes were calculated using ImageJ image processing program (version 1.51) using the Analyze Particle tool. mCherry particle sizes were collected for MORC4 WT and MORC4 W435A transfected cells. Data were plotted with R (version 3.4.1) using ggplot2 (version 3.2.1). Cell size and mCherry foci count per cell were calculated using CellProfile cell image analysis software (version 3.1.5) to identify nuclei and mCherry foci, relate mCherry foci to nuclei containing them and measure the size of nuclei and number mCherry foci contained. Data were plotted with R (version 3.4.1) using ggplot2 (version 3.2.1).

NCP147 = test: FRET, LexA titration into Cy3-Cy5 labeled NCP147; format: binding; details: mean of n = 3
Protocol: Histone octamers unlabeled or labeled with Cy5 at H2AK119 were prepared as previously described. NCPs were reconstituted by combining octamer with 1.25× excess DNA and performing slow salt dialysis. Free DNA was then separated from fully reconstituted NCPs by sucrose gradient purification. NCPs for fluorescence polarization assays were reconstituted from unlabeled octamer and 207 bp DNA containing the 601 Widom sequence flanked with a 30 bp linker on either side and internally labeled with Fluorescein 27 bp in from the 5′ end. Cy3-Cy5 labeled NCPs for FRET assays were reconstituted with Cy5 labeled octamer plus either 147 bp 601 Widom DNA containing a LexA transcription factor binding site at bases 8–27[34], or 252 bp DNA containing the 601 Widom sequence with a 75 bp linker at the 3′ end, a 30 bp linker at the 5’ end, and a Gal4 transcription factor binding site at bases 8–26 in the 601 Widom sequence. The 147 bp LexA-binding DNA was labeled with Cy3 on the 5′ end, and the 252 bp Gal4-binding DNA was internally labeled with Cy3 34 bp in from the 5′ end.
LexA was expressed in E. coli, separated from genomic DNA and the proteome by polyethyleneimine precipitation, and salted out with ammonium sulfate. LexA was resuspended in buffer A (20 mM potassium phosphate pH 7, 0.1 mM EDTA, 10% glycerol, 1 mM DTT) + 200 mM NaCl and purified by a linear gradient to A + 800 mM NaCl over either a cellulose phosphate or HiTrap Heparin HP column. […]
Cy3-Cy5 NCP FRET efficiency measurements were carried out on a Horiba Scientific Fluoromax 4. […] LexA titrations were carried out in 20 mM Tris pH 7.5, 75 mM NaCl, 10% glycerol, 0.00625% Tween 20 buffer with 5 nM 147 bp Cy3-Cy5 NCPs mixed in 20 µL reaction volumes and allowed to incubate for 5 mins at 4 °C before FRET of the sample was measured. […] Gal4 (1–147) titrations were carried out in 10 mM Tris pH 8, 130 mM NaCl, 10% glycerol, 0.0075% Tween 20 buffer with 1 nM 252 bp Cy3-Cy5 nucleosomes mixed in 60 µL reaction volumes and allowed to incubate for 10 mins at room temperature before FRET of the sample was measured. […]

B1: MORC4 K460A/R462A/R463A: mCherry-tagged MORC4 triple mutant with disrupted DNA-binding activity of CW (protein, UniProt Q8TE76 1-937, looked up, variant K460A R462A R463A)
MORC family CW-type zinc …: MLLYRGAPAGPGAPGCGLARPGGGPQAFGIRLSTMSPRYLQSNSSSHTRPFSAIAELLDNAVDPDVSARTVFIDVEEVKNKSCLTFTDDGCGMTPHKLHRMLSFGFTDKVIKKSQCPIGVFGNGFKSGSMRLGKDALVFTKNGGTLTVGLLSQTYLECVQAQAVIVPIVPFNQQNKKMIITEDSLPSLEAILNYSIFNRENDLLAQFDAIPGKKGTRVLIWNIRRNKNGKSELDFDTDQYDILVSDFDTEEKMTGGVTSELPETEYSLRAFCGILYMKPRMKIFLRQKKVTTQMIAKSLANVEYDTYKPTFTNKQVRITFGFSCKNSNQFGIMMYHNNRLIKSFEKVGCQVKPTRGEGVGVIGVIECNFLKPAYNKQDFEYTKEYRLTINALAQKLNAYWKEKTSQDNFETSTVARPIPKVPDQTWVQCDECLKWRKLPGKIDPSMLPARWFCYYNSHPAYAACSVPEEQELTDEDLCLSKAKKQEQTVEEKKKMPMENENHQVFSNPPKILTVQEMAGLNNKTIGYEGIHSPSVLPSGGEESRSPSLQLKPLDSSVLQFSSKYKWILGEEPVEKRRRLQNEMTTPSLDYSMPAPYRRVEAPVAYPEGENSHDKSSSERSTPPYLFPEYPEASKNTGQNREVSILYPGAKDQRQGSLLPEELEDQMPRLVAEESNRGSTTINKEEVNKGPFVAVVGVAKGVRDSGAPIQLIPFNREELAERRKAVESWNPVPYSVASAAIPAAAIGEKARGYEESEGHNTPKLKNQRELEELKRTTEKLERVLAERNLFQQKVEELEQERNHWQSEFKKVQHELVIYSTQEAEGLYWSKKHMGYRQAEFQILKAELERTKEEKQELKEKLKETETHLEMLQKAQVSYRTPEGDDLERALAKLTRLRIHVSYLLTSVLPHLELREIGYDSEQVDGILYTVLEANHILD
modifications: mCherry tag
effect on S phase (words) (HEK293T cells [1]): increased percent of cells in S phase | effect on S phase (words) (HEK293T cells [1]; listed as K460A/R462A/R463A): no significant effect was observed

B2: MORC4 W435A: mCherry-tagged full-length MORC4 W435A mutant, in which the structure of the CW domain is disrupted (protein, UniProt Q8TE76 1-937, looked up, variant W435A)
chain: B1 MORC family CW-type zinc … with W435A, A460K, A462R, A463R
modifications: full-length mCherry tag
structure of the CW domain (MORC4 CW domain): the structure of the CW domain is disrupted | subcellular localization (HEK293T cells [2]): dispersed throughout the cell | percent of cells in S phase (HEK293T cells [1]): 36.5%

B3: E56A/W435A: dual mutant of mCherry-tagged MORC4 (protein, UniProt Q8TE76 1-937, looked up, variant E56A W435A)
chain: B1 MORC family CW-type zinc … with E56A, W435A, A460K, A462R, A463R
modifications: full-length mCherry tag
notes: dual mutant of mCherry-tagged MORC4
percent of cells in S phase (HEK293T cells [1]): 35.8%

B4: LexA: transcription factor LexA, expressed in E. coli (protein, UniProt P0A7C2 1-202, looked up)
LexA repressor: MKALTARQQEVFDLIRDHISQTGMPPTRAEIAQRLGFRSPNAAEEHLKALARKGVIEIVSGASRGIRLLQEEEEGLPLVGRVAAGEPLLAQQHIEGHYQVDPSLFKPNADFLLRVSGMSMKDIGIMDGDLLAVHKTQDVRNGQVVVARIDDEVTVKRLKKQGNKVELLPENSEFKPIVVDLRQQSFTIEGLAVGVIRNGDWL
S1/2 (NCP147; +1 μM MORC4 ATPaseCW): 2.4 ± 0.4 µM | S1/2 (NCP147; without MORC4, 5 nM NCP147, pH 7.5, 75 mM NaCl, 4 °C, 5 min): 0.9 ± 0.2 µM
